From CN112125972A (SINOCELLTECH LTD, dated 2020)

What was measured:
Assay in all cases: double-antibody sandwich ELISA, R001 as capture and HRP-R001 as detection, mixture of HPV types
[1] = molecular target: T1, HPV39 VLP (Human papillomavirus type 39, UniProt P24838 1-505)
T1 construct: also called HPV39完整VLP蛋白
T1 sequence: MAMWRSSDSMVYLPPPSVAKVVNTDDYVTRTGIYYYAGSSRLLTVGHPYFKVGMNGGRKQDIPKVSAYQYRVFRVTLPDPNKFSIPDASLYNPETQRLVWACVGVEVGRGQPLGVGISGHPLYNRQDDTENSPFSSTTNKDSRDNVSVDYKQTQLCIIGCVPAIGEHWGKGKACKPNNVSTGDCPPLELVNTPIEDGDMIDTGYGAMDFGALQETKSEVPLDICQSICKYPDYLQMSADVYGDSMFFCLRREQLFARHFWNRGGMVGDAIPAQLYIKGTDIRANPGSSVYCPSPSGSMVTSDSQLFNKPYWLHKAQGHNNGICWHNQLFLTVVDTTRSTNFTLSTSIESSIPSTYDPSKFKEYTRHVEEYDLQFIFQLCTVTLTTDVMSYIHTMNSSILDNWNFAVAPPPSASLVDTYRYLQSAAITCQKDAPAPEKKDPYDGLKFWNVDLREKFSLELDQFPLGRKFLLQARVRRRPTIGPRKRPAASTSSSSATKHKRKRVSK

[2] = molecular target: T2, HPV18 VLP (Human papillomavirus type 18, UniProt P06794 62-568)
T2 construct: also called HPV18完整VLP蛋白
T2 sequence: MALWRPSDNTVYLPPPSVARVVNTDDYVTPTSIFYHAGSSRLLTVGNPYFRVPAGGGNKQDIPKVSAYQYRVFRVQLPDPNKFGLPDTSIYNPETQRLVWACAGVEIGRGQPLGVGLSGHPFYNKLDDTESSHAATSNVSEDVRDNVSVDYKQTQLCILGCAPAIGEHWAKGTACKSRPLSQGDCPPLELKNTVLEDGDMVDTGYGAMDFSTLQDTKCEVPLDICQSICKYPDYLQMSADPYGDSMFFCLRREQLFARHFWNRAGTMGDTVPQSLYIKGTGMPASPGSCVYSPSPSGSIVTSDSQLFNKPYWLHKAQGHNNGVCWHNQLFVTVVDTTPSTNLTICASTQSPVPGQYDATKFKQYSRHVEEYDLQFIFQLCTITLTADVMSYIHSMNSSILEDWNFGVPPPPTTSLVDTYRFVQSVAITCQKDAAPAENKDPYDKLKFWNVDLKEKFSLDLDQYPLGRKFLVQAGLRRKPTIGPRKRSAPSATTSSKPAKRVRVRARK

[3] = molecular target: T3, HPV31 VLP (Human papillomavirus type 31, UniProt P17388 1-504)
T3 construct: also called HPV31完整VLP蛋白
T3 sequence: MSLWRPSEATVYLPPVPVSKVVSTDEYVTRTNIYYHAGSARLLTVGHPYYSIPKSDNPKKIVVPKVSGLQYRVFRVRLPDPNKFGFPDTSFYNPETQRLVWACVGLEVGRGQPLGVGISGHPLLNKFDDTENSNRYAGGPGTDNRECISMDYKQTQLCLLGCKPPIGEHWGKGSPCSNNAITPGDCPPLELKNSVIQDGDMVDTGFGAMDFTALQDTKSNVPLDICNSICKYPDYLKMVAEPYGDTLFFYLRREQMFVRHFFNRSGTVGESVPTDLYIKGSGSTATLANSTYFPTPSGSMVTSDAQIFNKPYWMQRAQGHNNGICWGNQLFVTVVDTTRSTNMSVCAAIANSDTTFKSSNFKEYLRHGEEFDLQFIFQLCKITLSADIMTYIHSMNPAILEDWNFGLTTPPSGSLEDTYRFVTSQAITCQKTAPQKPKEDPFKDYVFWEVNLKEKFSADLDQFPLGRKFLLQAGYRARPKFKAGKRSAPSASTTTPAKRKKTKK

B1: HPV 16 R001 (antibody, V domains shown)
VH: QSVKESEGRLVTPGTPLTLTCTASGFTMSRYHMTWVRQAPGKGLEWIGIIYARNSDTYYANWAKGRFTISKTSTTVDLKITSPTIEDTATYFCARVDSDSSGAFDRLDLWGQGTLVTVSS
VL: DPMLTQTAASVEVAVGGTVTIKCQASQSIGGYLSWYQQKPGQRPKLLIYRASTLASGVPSRFKGSGSGTEYTLTFSGVECADAAAYYCQQGYTSSDINNAFGGGTEVVVK
notes: An HRP-labelled form served as detection antibody in the sandwich ELISA; also called HPV16.001; 单克隆抗体HPV 16 R001
**Q.** What does the source list for B1?
**A.** binding result [1]: no binding (tested: 50ng/mL，25ng/mL，12.5ng/mL); binding result [2]: no binding (tested: 50ng/mL，25ng/mL，12.5ng/mL); binding result [3]: no binding (tested: 50ng/mL，25ng/mL，12.5ng/mL)
